Data set [1] relates to CO/N=C(\C(=O)N[C@@H]1C(=O)N2C(C(=O)O)=C(COC(C)=O)CS[C@H]12)c1csc(N)n1. Nature of the data set: purified protein. The note with it: 10 mM HEPES pH 7.5, 150 mM NaCl, 25 °C, standard error in parentheses, n = 3.
The test system of data set [2] is CC(C)(O/N=C(\C(=O)N[C@@H]1C(=O)N2C(C(=O)[O-])=C(C[n+]3ccccc3)CS[C@H]12)c1csc(N)n1)C(=O)O. Description: purified protein. The note with it: 10 mM HEPES pH 7.5, 150 mM NaCl, 25 °C, standard error in parentheses.

These results are taken from PMC7949053, “Natural variants modify Klebsiella pneumoniae carbapenemase (KPC) acyl–enzyme conformational dynamics to extend antibiotic resistance” (The Journal of Biological Chemistry, 2020).

For the substance KPC-2 (Klebsiella pneumoniae), in data set [1], the Km is on record as 200 (29) μM, the kcat turned out to be 76 s⁻¹ and the kcat/Km was found to be 380000 M⁻¹ s⁻¹. Further, in data set [2], the Km is reported as 530 (70) μM, the kcat was determined as 1.9 s⁻¹ and the kcat/Km is 3500 M⁻¹ s⁻¹.
